Assay results published in the supplement of paper PMC9732359.
± gives the uncertainty stated by the source.

Test: protein stability index of a GFP-peptide fusion (yeast GPS) (PSI 1-4); higher = more stable; sorted into four equal gates, so the index is relative within each strain
In short: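 For each peptide, the protein stability index sums the read frequency in every gate after multiplying it by the gate number. Read frequencies came from plasmids that were PCR-amplified from each gate and Illumina-sequenced, with reads assigned to strains by barcodes. The gates were four equal bins of GFP/Cherry fluorescence ratio applied to mid-log yeast in leucine-free medium carrying a pooled library of tiled 17-residue yeast protein peptides fused downstream of GFP on a Cherry-expressing plasmid.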

For FKVYEPLLLVGLDKFSN [RPS16A], the protein stability index (doa10∆) was 1.72 ± 0.058, the protein stability index (pdr5∆) was 1.96 ± 0.055 and the protein stability index (san1∆) was 1.85 ± 0.074. For the same sequence, the protein stability index (ubr1∆) was 2.14 ± 0.043.

VVDQLWSEISNELPDIE [RPN2] gave a protein stability index (doa10∆) of 2.38 ± 0.12, a protein stability index (pdr5∆) of 2.94 ± 0.1 and a protein stability index (san1∆) of 2.75 ± 0.12. It also gave a protein stability index (ubr1∆) of 2.69 ± 0.046.

Work on QELLNAETLCFTVNVLY [RPN3] yielded a protein stability index (doa10∆) of 3.11 ± 0.075, a protein stability index (pdr5∆) of 2.75 ± 0.087 and a protein stability index (san1∆) of 2.94 ± 0.065. It also gave a protein stability index (ubr1∆) of 2.87 ± 0.062.

With TRSALKLVRESELLGGT [QCR2] the protein stability index (doa10∆) was 2.51 ± 0.29, the protein stability index (pdr5∆) was 2.5 ± 0.24 and the protein stability index (san1∆) was 2.21 ± 0.16.

FQNLELETEQLSSELDS [SMC2] gave a protein stability index (doa10∆) of 2.08 ± 0.12, a protein stability index (pdr5∆) of 2.58 ± 0.11 and a protein stability index (san1∆) of 1.55 ± 0.14. For the same sequence, the protein stability index (ubr1∆) was 2.69 ± 0.13.

With GIGGDHAKFSPVSTASY [RPC40] the protein stability index (doa10∆) was 2.59 ± 0.079, the protein stability index (pdr5∆) was 2.9 ± 0.12 and the protein stability index (san1∆) was 2.28 ± 0.098. The protein stability index (ubr1∆) was 2.9 ± 0.062.

Sequence ASHNEKDQDSQIELSCN [SRP72] has a protein stability index (doa10∆) of 2.85 ± 0.079, a protein stability index (pdr5∆) of 2.41 ± 0.079 and a protein stability index (san1∆) of 2.9 ± 0.051. For the same sequence, the protein stability index (ubr1∆) was 3.1 ± 0.058.

For SNTYKEERSNNLLTPQP [MCD1], the protein stability index (doa10∆) was 2.76 ± 0.078, the protein stability index (pdr5∆) was 3.18 ± 0.094 and the protein stability index (san1∆) was 3.01 ± 0.046. For the same sequence, the protein stability index (ubr1∆) was 3.2 ± 0.051.

With NYTGWKAISVGANTSAA [PRE9] the protein stability index (doa10∆) was 1.23 ± 0.079, the protein stability index (pdr5∆) was 1.36 ± 0.076 and the protein stability index (san1∆) was 1.24 ± 0.2. For the same sequence, the protein stability index (ubr1∆) was 1.17 ± 0.062.

Sequence IEAASTTQDQCKLTLDI [RPB8] has a protein stability index (doa10∆) of 2.92 ± 0.06, a protein stability index (pdr5∆) of 3.12 ± 0.077 and a protein stability index (san1∆) of 2.81 ± 0.042. It also gave a protein stability index (ubr1∆) of 3.07 ± 0.078.

Work on KVSDPYVPTRNTFNYDV [RPN4] yielded a protein stability index (doa10∆) of 2.25 ± 0.14, a protein stability index (pdr5∆) of 2.39 ± 0.17 and a protein stability index (san1∆) of 1.8 ± 0.28. The protein stability index (ubr1∆) was 2.08 ± 0.085.

Sequence AVAASSTKTGTPSDLSE [POP1] has a protein stability index (doa10∆) of 3.3 ± 0.084, a protein stability index (pdr5∆) of 3.26 ± 0.077 and a protein stability index (san1∆) of 3.41 ± 0.045. The protein stability index (ubr1∆) was 3.33 ± 0.035.

With HGMDFTTDKLRSMVRKW [RPS1A] the protein stability index (doa10∆) was 2.42 ± 0.1, the protein stability index (pdr5∆) was 2.55 ± 0.1 and the protein stability index (san1∆) was 2.48 ± 0.19. For the same sequence, the protein stability index (ubr1∆) was 2.9 ± 0.064.

IEPLEINIQSFKDVEHI [BRR2] gave a protein stability index (doa10∆) of 2.5 ± 0.069, a protein stability index (pdr5∆) of 2.31 ± 0.062 and a protein stability index (san1∆) of 2.12 ± 0.074. It also gave a protein stability index (ubr1∆) of 2.67 ± 0.068.

With AEDLTIAAKTHILRISF [SIN4] the protein stability index (doa10∆) was 2.36 ± 0.12, the protein stability index (pdr5∆) was 3.02 ± 0.09 and the protein stability index (san1∆) was 2.85 ± 0.085.

In the case of KRSGVIETVDDKLKDIV [ITC1], the protein stability index (doa10∆) is reported as 3.15 ± 0.29 and the protein stability index (pdr5∆) is reported as 3 ± 0.3.

AAGKRISHIEKRIESLQ [SMC1] gave a protein stability index (doa10∆) of 3.09 ± 0.099, a protein stability index (pdr5∆) of 3.07 ± 0.096 and a protein stability index (san1∆) of 2.93 ± 0.073. The protein stability index (ubr1∆) was 3.08 ± 0.095.

WRAIIKAIFPNTVDGDL [FAS1] gave a protein stability index (doa10∆) of 2.58 ± 0.13, a protein stability index (pdr5∆) of 2.75 ± 0.15 and a protein stability index (san1∆) of 2.6 ± 0.094.

With LLGEGESKLKIDPDTKA [RPB11] the protein stability index (doa10∆) was 2.93 ± 0.19 and the protein stability index (ubr1∆) was 3.14 ± 0.24.

SNDKFVHVQLLINLKIS [SRB8] showed a protein stability index (doa10∆) of 1.51 ± 0.042, a protein stability index (pdr5∆) of 1.82 ± 0.045 and a protein stability index (san1∆) of 1.6 ± 0.064. For the same sequence, the protein stability index (ubr1∆) was 1.61 ± 0.034.

Work on LSERKAEKAEIRKRRAS [RPS6A] yielded a protein stability index (doa10∆) of 3.44 ± 0.17, a protein stability index (pdr5∆) of 3.06 ± 0.23 and a protein stability index (san1∆) of 3.24 ± 0.13. It also gave a protein stability index (ubr1∆) of 3.36 ± 0.14.

Work on VNADTVGKTVKQLIMES [NSL1] yielded a protein stability index (doa10∆) of 3.22 ± 0.077, a protein stability index (pdr5∆) of 3.13 ± 0.055 and a protein stability index (san1∆) of 2.94 ± 0.058. For the same sequence, the protein stability index (ubr1∆) was 3.33 ± 0.05.

For GDNEYITLRTSGELLQG [MCD1], the protein stability index (doa10∆) was 3.14 ± 0.13, the protein stability index (pdr5∆) was 3.11 ± 0.16 and the protein stability index (san1∆) was 3.16 ± 0.097. It also gave a protein stability index (ubr1∆) of 3.36 ± 0.096.

IWMRGHGTYFLDNMTYS [RRP4] gave a protein stability index (doa10∆) of 2.45 ± 0.06, a protein stability index (pdr5∆) of 2.38 ± 0.051 and a protein stability index (san1∆) of 2.31 ± 0.082. For the same sequence, the protein stability index (ubr1∆) was 2.19 ± 0.054.

TENEKFISYHDKYLCML [NUT1] gave a protein stability index (doa10∆) of 2.91 ± 0.056, a protein stability index (pdr5∆) of 3 ± 0.055 and a protein stability index (san1∆) of 3.23 ± 0.049. For the same sequence, the protein stability index (ubr1∆) was 3.11 ± 0.053.

In the case of EKESDDGLLEYLEDIIG [SMC4], the protein stability index (doa10∆) is reported as 3.47 ± 0.091, the protein stability index (pdr5∆) is reported as 3.31 ± 0.075 and the protein stability index (san1∆) is reported as 3.15 ± 0.079. It also gave a protein stability index (ubr1∆) of 3.54 ± 0.1.

For IQAGKFDNKSTSEEQEA [SNF2], the protein stability index (doa10∆) was 3.28 ± 0.068, the protein stability index (pdr5∆) was 3.36 ± 0.16 and the protein stability index (san1∆) was 2.84 ± 0.17. It also gave a protein stability index (ubr1∆) of 2.94 ± 0.12.

IAKLSVIPIRRGYWGTN [RPS2] gave a protein stability index (doa10∆) of 2.02 ± 0.073, a protein stability index (pdr5∆) of 1.67 ± 0.11 and a protein stability index (san1∆) of 1.93 ± 0.19. For the same sequence, the protein stability index (ubr1∆) was 1.76 ± 0.12.

Work on AKLNHLKKLEKFMELER [SWI3] yielded a protein stability index (doa10∆) of 2.9 ± 0.064, a protein stability index (pdr5∆) of 2.83 ± 0.069 and a protein stability index (san1∆) of 3.03 ± 0.054. For the same sequence, the protein stability index (ubr1∆) was 2.66 ± 0.058.

Sequence TIQYDPPETKLPYPTYW [SNF5] has a protein stability index (doa10∆) of 3.02 ± 0.049, a protein stability index (pdr5∆) of 2.93 ± 0.042 and a protein stability index (san1∆) of 2.98 ± 0.039. For the same sequence, the protein stability index (ubr1∆) was 2.94 ± 0.039.

For EIQPRANIQLDFPELKP [FAS2], the protein stability index (doa10∆) was 3.13 ± 0.064, the protein stability index (pdr5∆) was 3.11 ± 0.063 and the protein stability index (san1∆) was 3.12 ± 0.076. It also gave a protein stability index (ubr1∆) of 3.26 ± 0.042.

Sequence SSTITGDVVLAAAYSHE [RPL5] has a protein stability index (doa10∆) of 2.32 ± 0.056, a protein stability index (pdr5∆) of 2.56 ± 0.06 and a protein stability index (san1∆) of 2.61 ± 0.057. It also gave a protein stability index (ubr1∆) of 2.31 ± 0.058.

Sequence VIVPLSTLSNWSSEFAK [SNF2] has a protein stability index (doa10∆) of 2.65 ± 0.049, a protein stability index (pdr5∆) of 2.35 ± 0.06 and a protein stability index (san1∆) of 2.52 ± 0.051. For the same sequence, the protein stability index (ubr1∆) was 2.6 ± 0.038.

In the case of GCEANIHSLVKQRLDLA [YIL149C/MLP2], the protein stability index (doa10∆) is reported as 3.06 ± 0.12, the protein stability index (pdr5∆) is reported as 3.19 ± 0.11 and the protein stability index (san1∆) is reported as 3.05 ± 0.062. For the same sequence, the protein stability index (ubr1∆) was 3.19 ± 0.076.

In the case of RLANLIDYKLRVLTQDG [SMB1], the protein stability index (doa10∆) is reported as 2.65 ± 0.089, the protein stability index (pdr5∆) is reported as 2.69 ± 0.08 and the protein stability index (san1∆) is reported as 1.62 ± 0.13. For the same sequence, the protein stability index (ubr1∆) was 2.79 ± 0.047.

For GKPTVNKKPKNKKKGRK [SRP72], the protein stability index (doa10∆) was 3.42 ± 0.084, the protein stability index (pdr5∆) was 3.29 ± 0.1 and the protein stability index (san1∆) was 2.93 ± 0.1. It also gave a protein stability index (ubr1∆) of 3.24 ± 0.092.

With VELHGKRKLDIGKDTFV [PRP8] the protein stability index (doa10∆) was 3.26 ± 0.29, the protein stability index (pdr5∆) was 2.94 ± 0.13 and the protein stability index (san1∆) was 2.47 ± 0.17. It also gave a protein stability index (ubr1∆) of 2.21 ± 0.11.

With DWGQALRLLLLLIEFPY [YJR042W/NUP85] the protein stability index (doa10∆) was 1.44 ± 0.05, the protein stability index (pdr5∆) was 1.29 ± 0.049 and the protein stability index (san1∆) was 1.39 ± 0.067. It also gave a protein stability index (ubr1∆) of 1.21 ± 0.034.

DRLSLQDRQQLLPLVVS [ECM29] gave a protein stability index (doa10∆) of 2 ± 0.051, a protein stability index (pdr5∆) of 2.06 ± 0.044 and a protein stability index (san1∆) of 1.64 ± 0.08. The protein stability index (ubr1∆) was 1.84 ± 0.037.

For KRNSDKVEYKIVHDDPA [ITC1], the protein stability index (doa10∆) was 2.12 ± 0.072, the protein stability index (pdr5∆) was 2.02 ± 0.083 and the protein stability index (san1∆) was 1.95 ± 0.13. For the same sequence, the protein stability index (ubr1∆) was 1.27 ± 0.053.

IVHDDPASDDILDNINH [ITC1] gave a protein stability index (doa10∆) of 2.98 ± 0.072, a protein stability index (pdr5∆) of 3.02 ± 0.062 and a protein stability index (san1∆) of 3.04 ± 0.09. It also gave a protein stability index (ubr1∆) of 3.25 ± 0.058.

MSNTLFDDIFQVSEVDP [RPB8] gave a protein stability index (doa10∆) of 3.02 ± 0.084, a protein stability index (pdr5∆) of 2.77 ± 0.098 and a protein stability index (san1∆) of 2.85 ± 0.1. It also gave a protein stability index (ubr1∆) of 3.08 ± 0.054.

NLGEYESAVKYALAAKD [RPN2] gave a protein stability index (doa10∆) of 2.42 ± 0.15, a protein stability index (pdr5∆) of 2.65 ± 0.09 and a protein stability index (san1∆) of 2.7 ± 0.09. For the same sequence, the protein stability index (ubr1∆) was 2.8 ± 0.054.

With NTNNNNNPANNTNNNNS [SWI1] the protein stability index (doa10∆) was 3.06 ± 0.033, the protein stability index (pdr5∆) was 3 ± 0.03 and the protein stability index (san1∆) was 3.344 ± 0.026. For the same sequence, the protein stability index (ubr1∆) was 3.435 ± 0.026.
